Measured values: PMC8892091
Where two headings read alike, the source gives them in different places.

Assays:
ALKBH6 WT [1] = target: T1, ALKBH6 WT (Homo sapiens, UniProt Q3KRA9 1-238); experiment: MST
MBP-ALKBH6 WT [2] = target: T2, MBP-ALKBH6 WT (Homo sapiens, UniProt Q3KRA9 1-238); experiment: EMSA
MBP-ALKBH6ΔFlip3 = MBP-ALKBH6ΔFlip3 (Homo sapiens, UniProt Q3KRA9 1-238, del139-158); experiment: EMSA
MBP-ALKBH6 R225A/R228A = MBP-ALKBH6 R225A/R228A (Homo sapiens, UniProt Q3KRA9 1-238, R225A;R228A); experiment: EMSA
ALKBH6ΔFlip3 = ALKBH6ΔFlip3 (Homo sapiens, UniProt Q3KRA9 1-238, del139-158); experiment: MST
ALKBH6 WT [3] = target: T1, ALKBH6 WT; experiment: MST; remark: listed apart in the source
MBP-ALKBH6 WT [4] = target: T2, MBP-ALKBH6 WT; experiment: competition
ALKBH6 WT [5] = target: T1, ALKBH6 WT; experiment: MST; remark: listed apart in the source

B1: poly(A) 30 nt (ssRNA)
RNA: AAAAAAAAAAAAAAAAAAAAAAAAAAAAAA
binding result (ALKBH6 WT [1]): binds
binding result (MBP-ALKBH6 WT [2]): binds

B2: dsDNA1 (dsDNA)
DNA 1: AACTTCGTGCAGGCATGGGATCTTGTCTACT
DNA 2: AGTAGACAAGATCCCATGCCTGCACGAAGTT
binding result (MBP-ALKBH6ΔFlip3): binds
binding result (MBP-ALKBH6 WT [2]): no binding

B3: ssDNA1 (FAM) (ssDNA)
DNA: GGATCAACAGTGCACAGTT
binding result (MBP-ALKBH6 R225A/R228A): binds
binding result (MBP-ALKBH6 WT [2]): binds

B4: ssDNA3 (FAM) (ssDNA)
DNA: GATCCAGTGATCCAGT
binding result (ALKBH6ΔFlip3): binds
binding result (ALKBH6 WT [3]): binds

B5: ssDNA1 (unlabelled) (ssDNA)
DNA: GGATCAACAGTGCACAGTT
binding result (MBP-ALKBH6 WT [4]): binds

B6: Bubble DNA1 (dsDNA)
DNA 1: AACTTCGTGCAGGCATGGGATCTTGTCTACT
DNA 2: AGTAGACAAGCGACCATGCCTGCACGAAGTT
binding result (ALKBH6 WT [5]): binds

B7: Bulge DNA1 (dsDNA)
DNA 1: AACTTCGTGCAGGCATGGGATCTTGTCTACT
DNA 2: AGTAGA
DNA 3: CATGCCTGCACGAAGTT
binding result (ALKBH6 WT [5]): binds

B8: Bulge DNA2 (dsDNA)
DNA 1: AACTTCGTGCAGGCATGGGATCTTGTCTACT
DNA 2: AGTAGACAACATGCCTGCACGAAGTT
binding result (ALKBH6 WT [5]): binds
